Here are results for 13 molecules from patent US8685890 (Bicycle, dated 2014).

Several values for one entry are separate records, joined by “and”; a condition that tells them apart may be missing. Equal values may be shown once. Starred links: 1 amine or outer side, 2 acyl side, 3 side chain; linkers in the order of their positions; H or OH if unused. Positions of bridges follow the written chain, without caps; N, C: chain ends. No end group written: not given here. TBMB = c1c(C[*:1])cc(C[*:3])cc1C[*:2]

The target of one experiment is kallikrein (UniProt P03952 20-638, limits assumed). Kind of experiment: cell-based or functional assay.
kallikrein, sequence (P03952 20-638 limits assumed): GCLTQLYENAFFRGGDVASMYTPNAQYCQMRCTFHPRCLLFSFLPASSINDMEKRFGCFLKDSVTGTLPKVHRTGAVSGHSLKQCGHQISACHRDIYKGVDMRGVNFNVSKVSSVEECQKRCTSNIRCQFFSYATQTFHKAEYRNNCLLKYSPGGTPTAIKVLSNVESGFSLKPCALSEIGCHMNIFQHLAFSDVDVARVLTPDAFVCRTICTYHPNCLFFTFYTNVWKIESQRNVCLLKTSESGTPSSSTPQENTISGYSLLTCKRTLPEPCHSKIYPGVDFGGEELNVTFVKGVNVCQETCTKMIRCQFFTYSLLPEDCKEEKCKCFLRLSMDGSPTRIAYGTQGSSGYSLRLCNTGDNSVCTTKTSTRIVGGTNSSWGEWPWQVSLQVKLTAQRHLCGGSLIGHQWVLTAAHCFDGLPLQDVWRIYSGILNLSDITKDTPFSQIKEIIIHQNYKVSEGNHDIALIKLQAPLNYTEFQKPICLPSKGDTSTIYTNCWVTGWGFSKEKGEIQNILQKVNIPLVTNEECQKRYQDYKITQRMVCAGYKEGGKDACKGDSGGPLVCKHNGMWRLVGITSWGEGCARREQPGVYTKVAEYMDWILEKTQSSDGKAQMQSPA
Experiment [1] addresses T1, MDM2 (res 2-125) (UniProt Q00987 2-125).
T1 construct: range 2-125
Kind of experiment: fluorescence anisotropy titration, MDM2 (res 2-125) titrated into the peptide, quadratic 1:1 fit with linear drift term; unit from the axis MDM2, uM. (In fluorescence polarisation assays a small probe gives low polarisation when free and higher when bound to something large.)

Experiment [2] addresses T2, Mdm2 (construct limits not stated) (UniProt Q00987 2-125, limits assumed). Kind of experiment: fluorescence anisotropy (FIG. 3); PK15L1-PEP48L1 bicycle (FIG. 3).
The target in experiment [3] is T1, MDM2 (res 2-125). Kind of experiment: fluorescence anisotropy titration, λex=295 nm.
Experiment [4] deals with T1, MDM2 (res 2-125). Kind of experiment: fluorescence anisotropy titration, intrinsic Trp fluorescence, PBS 5 mM DTT, 23 C.
The target of experiment [5] is T1, MDM2 (res 2-125). Kind of experiment: fluorescence anisotropy titration, MDM2 (res 2-125) titrated into the peptide, quadratic 1:1 fit with linear drift term; unit from the axis uM Mdm2.
Experiment [6] concerns the target T3, bovine serum albumin (bovine, UniProt P02769 25-607).
T3 construct: also called BSA
In words: fluorescence anisotropy titration of BSA into 500 nM peptide.

For experiment [7], the target named is T2, Mdm2 (construct limits not stated at …). In words: fluorescence anisotropy titration of 18.8 µM Mdm2 into 500 nM peptide; data could not be fitted.
Experiment [8] concerns the target T3, bovine serum albumin. Kind of experiment: fluorescence anisotropy titration of BSA into peptide.
The target of experiment [9] is T3, bovine serum albumin. In words: fluorescence anisotropy, comparison of Kd.
Experiment [10] addresses T3, bovine serum albumin. In words: fluorescence anisotropy titration of BSA into 0.4 µM peptide.
Experiment [11] has as its target T3, bovine serum albumin. In words: fluorescence anisotropy titration of BSA into 200 nM peptide.
The target of experiment [12] is T2, Mdm2 (construct limits not stated at …). In words: method not given; affinity-matured Pep48T, estimated.
Experiment [13] concerns the target T1, MDM2 (res 2-125). Described as described in Example 1 (method not retold).
In experiment [14] the target is T1, MDM2 (res 2-125). In words: fluorescence anisotropy (Example 1, retold as a range); lower end of range retold from Example 1.
Experiment [15] concerns the target T1, MDM2 (res 2-125). In words: fluorescence anisotropy (Example 1, retold as a range); upper end of range retold from Example 1.
Experiment [16] deals with T1, MDM2 (res 2-125). In words: fluorescence anisotropy titration, λex=280 nm; λex=280 nm.

T3 sequence (P02769 25-607 limits assumed): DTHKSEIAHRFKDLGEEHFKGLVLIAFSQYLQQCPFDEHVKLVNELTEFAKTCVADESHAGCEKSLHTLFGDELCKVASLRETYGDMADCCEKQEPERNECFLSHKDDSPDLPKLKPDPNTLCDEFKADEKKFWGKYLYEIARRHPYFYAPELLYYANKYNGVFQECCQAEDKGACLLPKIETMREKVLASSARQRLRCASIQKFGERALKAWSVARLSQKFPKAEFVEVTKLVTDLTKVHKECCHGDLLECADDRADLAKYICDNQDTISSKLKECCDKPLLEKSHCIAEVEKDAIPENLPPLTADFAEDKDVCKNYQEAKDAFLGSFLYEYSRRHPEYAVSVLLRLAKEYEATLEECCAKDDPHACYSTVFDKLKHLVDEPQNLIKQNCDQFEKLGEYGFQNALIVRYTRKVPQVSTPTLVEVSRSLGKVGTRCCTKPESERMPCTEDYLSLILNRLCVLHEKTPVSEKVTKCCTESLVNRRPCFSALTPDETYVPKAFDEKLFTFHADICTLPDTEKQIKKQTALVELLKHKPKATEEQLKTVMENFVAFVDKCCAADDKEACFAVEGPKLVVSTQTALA
T1 sequence (Q00987 2-125 limits assumed): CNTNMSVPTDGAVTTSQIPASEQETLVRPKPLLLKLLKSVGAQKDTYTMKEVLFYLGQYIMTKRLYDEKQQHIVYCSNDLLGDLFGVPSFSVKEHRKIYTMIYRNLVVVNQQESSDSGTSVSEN
T2 sequence (Q00987 2-125 limits assumed): as above

B1: PK15L1-PK15L2 bicyclic (peptide)
peptide: ACSDRFRNCPADEALCG
modifications: linker 2-9-16 via TBMB
For the molecule B1, in the experiment with kallikrein, the “IC50 for inhibition of kallikrein activity” value (from here on “IC50 for inhibition”) came to 13 nM.

B2: CG4L1-PK15L1-PK15L2 tricyclic (peptide)
peptide: ALCIFDLGFCSDRFRNCPADE
HELM: PEPTIDE1{A.L.C.I.F.D.L.G.F.C.S.D.R.F.R.N.C.P.A.D.E}|CHEM1{[c1c(C[*:1])cc(C[*:3])cc1C[*:2]]}$PEPTIDE1,CHEM1,3:R3-1:R1|PEPTIDE1,CHEM1,10:R3-1:R2|PEPTIDE1,CHEM1,17:R3-1:R3|PEPTIDE1,PEPTIDE1,1:R1-21:R2$$$V2.0
SMILES: CC[C@H](C)[C@@H]1NC(=O)[C@@H]2CSCc3cc4cc(c3)CSC[C@H](NC(=O)[C@H](CC(N)=O)NC(=O)[C@H](CCCNC(=N)N)NC(=O)[C@H](Cc3ccccc3)NC(=O)[C@H](CCCNC(=N)N)NC(=O)[C@H](CC(=O)O)NC(=O)[C@H](CO)NC(=O)[C@H](CSC4)NC(=O)[C@H](Cc3ccccc3)NC(=O)CNC(=O)[C@H](CC(C)C)NC(=O)[C@H](CC(=O)O)NC(=O)[C@H](Cc3ccccc3)NC1=O)C(=O)N1CCC[C@H]1C(=O)N[C@@H](C)C(=O)N[C@@H](CC(=O)O)C(=O)N[C@@H](CCC(=O)O)C(=O)N[C@@H](C)C(=O)N[C@@H](CC(C)C)C(=O)N2
As for B2, in the experiment with kallikrein, the “IC50 for inhibition” value came out at 15000 nM.

B3: PK15L1-PEP48L1 bicyclic (peptide)
peptide: ACSDRFRNCVRFGWTCG
modifications: linker 2-9-16 via TBMB
notes: also called PK15L1-PEP48L1 bicyclic peptide; dual specific peptide comprising loops from PEP48 and PK15
Regarding B3, the Kd with MDM2 (res 2-125) [1] was found to be 1560 nM; in [2], 1550 nM. In addition, the “IC50 for inhibition” value in the experiment with kallikrein is 11000 nM.

B4: PEP10 bicyclic peptide (synthetic peptide of phage clone 10 conjugated to TBMB) (peptide)
peptide: H-SCELWNPKCRLSPFECKG-OH
modifications: linker 2-9-16 via TBMB
notes: measured in PBS with 5 mM DTT; also called peptide 10
On to B4, for which the results for the equilibrium dissociation constant (Kd) with MDM2 (res 2-125) [3], in the experiment with MDM2 (res 2-125) [4] and with MDM2 (res 2-125) [5] were 267 nM, 250 to 750 nM and 268 nM, respectively.

B5: PK15L1-CG4L1 bicyclic (peptide)
peptide: ACSDRFRNCIFDLGFCG
HELM: PEPTIDE1{A.C.S.D.R.F.R.N.C.I.F.D.L.G.F.C.G}|CHEM1{[c1c(C[*:1])cc(C[*:3])cc1C[*:2]]}$PEPTIDE1,CHEM1,2:R3-1:R1|PEPTIDE1,CHEM1,9:R3-1:R2|PEPTIDE1,CHEM1,16:R3-1:R3$$$V2.0
SMILES: CC[C@H](C)[C@@H]1NC(=O)[C@@H]2CSCc3cc(cc(c3)CSC[C@@H](C(=O)NCC(=O)O)NC(=O)[C@H](Cc3ccccc3)NC(=O)CNC(=O)[C@H](CC(C)C)NC(=O)[C@H](CC(=O)O)NC(=O)[C@H](Cc3ccccc3)NC1=O)CSC[C@H](NC(=O)[C@H](C)N)C(=O)N[C@@H](CO)C(=O)N[C@@H](CC(=O)O)C(=O)N[C@@H](CCCNC(=N)N)C(=O)N[C@@H](Cc1ccccc1)C(=O)N[C@@H](CCCNC(=N)N)C(=O)N[C@@H](CC(N)=O)C(=O)N2
As for B5, the “IC50 for inhibition” value with kallikrein was found to be 200 nM.

B6: bicyclic Fmoc-WGGGA-PEP48L1-PK15L1 (peptide)
peptide: WGGGACVRFGWTCSDRFRNCG
HELM: PEPTIDE1{[O=C(OCC1c2ccccc2-c2ccccc21)[*:2]].W.G.G.G.A.C.V.R.F.G.W.T.C.S.D.R.F.R.N.C.G.[am]}|CHEM1{[c1c(C[*:1])cc(C[*:3])cc1C[*:2]]}$PEPTIDE1,CHEM1,7:R3-1:R1|PEPTIDE1,CHEM1,14:R3-1:R2|PEPTIDE1,CHEM1,21:R3-1:R3$$$V2.0
SMILES: CC(C)[C@@H]1NC(=O)[C@@H](NC(=O)[C@H](C)NC(=O)CNC(=O)CNC(=O)CNC(=O)[C@H](Cc2c[nH]c3ccccc23)NC(=O)OCC2c3ccccc3-c3ccccc32)CSCc2cc3cc(c2)CSC[C@H](NC(=O)[C@H]([C@@H](C)O)NC(=O)[C@H](Cc2c[nH]c4ccccc24)NC(=O)CNC(=O)[C@H](Cc2ccccc2)NC(=O)[C@H](CCCNC(=N)N)NC1=O)C(=O)N[C@@H](CO)C(=O)N[C@@H](CC(=O)O)C(=O)N[C@@H](CCCNC(=N)N)C(=O)N[C@@H](Cc1ccccc1)C(=O)N[C@@H](CCCNC(=N)N)C(=O)N[C@@H](CC(N)=O)C(=O)N[C@H](C(=O)NCC(N)=O)CSC3
notes: also called Fmoc PEP48L1-PK15L1 bicyclic; FmocPEP48L1-PK15L1
As for B6, the Kd was 62 nM in the experiment with bovine serum albumin [6] and less than 1000 nM in [7]. Further, the “IC50 for inhibition” value with kallikrein came out at 17000 nM.

B7: X-CG4L1-PK15L1-Y bicyclic (peptide)
peptide: H-ALCIFDLGFCSDRFRNCPADE-OH
modifications: linker 3-10-17 via TBMB
Take B7: the “IC50 for inhibition” value with kallikrein amounted to 15000 nM.

B8: Fmoc-FGSGD-NH2 (peptide)
peptide: FGSGD
HELM: PEPTIDE1{[O=C(OCC1c2ccccc2-c2ccccc21)[*:2]].F.G.S.G.D.[am]}$$$$V2.0
SMILES: NC(=O)[C@H](CC(=O)O)NC(=O)CNC(=O)[C@H](CO)NC(=O)CNC(=O)[C@H](Cc1ccccc1)NC(=O)OCC1c2ccccc2-c2ccccc21
B8: the Kd with bovine serum albumin [8] was 160 nM. Moreover, the “fold tighter than the glycine variant (Fmoc-GGSGD-NH2)” value in the experiment with bovine serum albumin [9] turned out to be 8 fold.

B9: Fmoc-WGSGD-NH2 (peptide)
peptide: WGSGD
HELM: PEPTIDE1{[O=C(OCC1c2ccccc2-c2ccccc21)[*:2]].W.G.S.G.D.[am]}$$$$V2.0
SMILES: NC(=O)[C@H](CC(=O)O)NC(=O)CNC(=O)[C@H](CO)NC(=O)CNC(=O)[C@H](Cc1c[nH]c2ccccc12)NC(=O)OCC1c2ccccc2-c2ccccc21
notes: also called Fmoc-Trp-GSGD
For the molecule B9, in the experiment with bovine serum albumin [10], the Kd is roughly 60 nM. Also, the “fold tighter than Fmoc-FGSGD-NH2” value with bovine serum albumin [9] stood at 3 fold.

B10: Fmoc-FGGGD-NH2 (peptide)
peptide: FGGGD
HELM: PEPTIDE1{[O=C(OCC1c2ccccc2-c2ccccc21)[*:2]].F.G.G.G.D.[am]}$$$$V2.0
SMILES: NC(=O)[C@H](CC(=O)O)NC(=O)CNC(=O)CNC(=O)CNC(=O)[C@H](Cc1ccccc1)NC(=O)OCC1c2ccccc2-c2ccccc21
In the experiment with bovine serum albumin [8], B10 displayed a dissociation constant Kd of 200 nM.

B11: Fmoc-GGSGD-NH2 (peptide)
peptide: GGSGD
HELM: PEPTIDE1{[O=C(OCC1c2ccccc2-c2ccccc21)[*:2]].G.G.S.G.D.[am]}$$$$V2.0
SMILES: NC(=O)[C@H](CC(=O)O)NC(=O)CNC(=O)[C@H](CO)NC(=O)CNC(=O)CNC(=O)OCC1c2ccccc2-c2ccccc21
notes: also called the glycine variant
For the molecule B11, binding in the experiment with bovine serum albumin [11] was put at a Kd of 1300 nM.

B12: Pep48T (affinity-matured Pep48 derivative, TBMB conjugate) (peptide)
peptide: SGCVRFGWTCPTVMCGG
modifications: linker 3-10-15 via TBMB; not fully specified (N-terminus, C-terminus)
With B12, the Kd in experiment [12] is roughly 100 nM.

B13: PEP48 bicyclic peptide (synthetic peptide of phage clone 48 conjugated to TBMB) (peptide)
peptide: H-SCVRFGWTCDNSWHGCKG-OH
modifications: linker 2-9-16 via TBMB
notes: measured in PBS with 5 mM DTT; also called peptide 48; PEP48L1-PEP48L2 bicyclic peptide
On to B13, for which the Kd with MDM2 (res 2-125) [3] was 567 nM; with MDM2 (res 2-125) [13] it was roughly 660 nM; with MDM2 (res 2-125) [14] it was no less than 500 nM; with MDM2 (res 2-125) [15], no more than 800 nM; with MDM2 (res 2-125) [16], 760 nM; in the experiment with MDM2 (res 2-125) [4], 250 to 750 nM. Besides, the Kd in the experiment with MDM2 (res 2-125) [5] is 760 nM and 568 nM.

The term Kd denotes a measure of binding affinity in units of concentration.
